Data on three molecules can be found in publication PMC4926178 (Viruses, 2016).

Like-named read-outs stand apart in the source and are kept apart here.

Experiment in all cases: ELISA
For orientation: An ELISA detects its analyte on a solid surface through an enzyme-linked reagent.

The target in assay [1] is glycosylated soluble gp120 (rgp 120 HIV-1 MN, baculovirus) (HIV-1 MN) (UniProt P05877).
For assay [2], the target named is T1, ribonuclease B (UniProt P61823 27-150).
T1 construct: also called RNase B
T1 sequence (looked up): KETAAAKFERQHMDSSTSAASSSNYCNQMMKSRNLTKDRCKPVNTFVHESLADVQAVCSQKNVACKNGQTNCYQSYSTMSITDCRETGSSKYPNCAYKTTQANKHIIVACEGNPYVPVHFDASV

Assay [3] concerns the target glycosylated soluble gp120 (rgp 120 HIV-1 MN, baculovirus) (HIV-1 MN), P05877. The conditions noted are these: remark: other sources report otherwise.

With “Nested Cyanovirin-N (Nested CV-N) (from UniProt P81180 1-50; P81180 1-101) (designed binder)”, the results for the EC50 in assay [1] and in assay [2] were 1.29 nM and 13 nM, respectively.

B1: wild-type Cyanovirin-N (WT CV-N), P81180 1-101 (natural protein)
chain: LGKFSQTCYNSAIQGSVLTSTCERTNGGYNTSSIDLNSVIENVDGSLKWQPSNFIETCRNTQLAGSSELAAECKTRAQQFVSTKINLDDHIANIDGTLKYE
modifications: here or on the partner: glycosylated (oligomannose glycans; about 25 sites per monomer)
For B1, the concentration giving a half-maximal response (EC50) in assay [3] turned out to be 1.66 nM.

B2: wild-type Cyanovirin-N (WT CV-N) (natural protein)
chain: B1 chain
In assay [2] (both partners purified), B2 yielded a concentration for a half-maximal effect (EC50) of 17 nM.

Usually EC50 stands for the concentration giving half of the maximal effect. Low readings indicate an effect from little substance, high ones a need for much substance.
